Measured values reported in US20080207488A1, “Method for Detecting Peptides Comprising a Cross-B Structure” (priority 2005, published 2008).
Each block holds one molecule with its values, some of them ahead of it.

What was measured:
[1] = ThT fluorescence of LPS-protein mixtures; assay type: physicochemical
Procedure: (§1) Fluorescence of ThT-protein/peptide adducts was measured as follows. […] Fluorescence was measured at 485 nm upon excitation at 435 nm. Background signals from buffer, buffer with ThT and protein/peptide solution without ThT were subtracted from corresponding measurements with protein solution incubated with ThT. […] Fluorescence was measured in triplicate on a Hitachi F-4500 fluorescence spectrophotometer (Ltd., Tokyo, Japan).
Subsequently, the ability to enhance ThT fluorescence was determined with 40× diluted solution, as described above. […]

tPA = biological target: T1, tPA (Homo sapiens, UniProt P00750); assay: Plasminogen-activation assay (tPA-mediated Plg to Pls, S-2251); assay type: biochemical; conditions: 100 μg ml^−1 protein
T1 construct: purchased Boehringer-Ingelheim (Actilyse, Alteplase)
Procedure: Plasmin (Pls) activity was assayed as described^7. Peptides and proteins that were tested for their stimulatory ability were regularly used at 100 μg ml^−1. […] Chromogenic substrate S-2251 (Chromogenix, Instrumentation Laboratory SpA, Milano, Italy) was used to measure Pls activity. Conversion of zymogen factor XII (#233490, Calbiochem, EMD Biosciences, Inc., San Diego, Calif.) to proteolytically active factor XII (factor XIIa) was assayed by measurement of the conversion of chromogenic substrate Chromozym-PK (Roche Diagnostics, Almere, The Netherlands) by kallikrein. Chromozym-PK was used at a concentration of 0.3 mM. Factor XII, human plasma prekallikrein (#529583, Calbiochem) and human plasma cofactor high-molecular weight kininogen (#422686, Calbiochem) were used at concentrations of 1 μg ml^−1. […] Assays were performed using microtiter plates (Costar, Cambridge, Mass., USA). Peptides and proteins were tested for their ability to activate factor XII. […] The conversion of Chromozym-PK was recorded kinetically at 37° C. for at least 60 minutes. […] With S-2222, activation of factor XII in plasma was measured, using 60% v/v plasma, diluted with substrate and H2O with or without potential cofactor. Furthermore, auto-activation of factor XII was measured by incubating 53 μg ml^−1 purified factor XII in 50 mM Tris-HCl buffer pH 7.5 with 1 mM EDTA and 0.001% v/v Triton-X100, with S-2222 and H2O with or without potential cofactor.
Formulated protein therapeutics were obtained from the local hospital pharmacy and were used as supplied by the manufacturers. […] Enhancement in fluorescence of ThT and Congo red was measured with all formulated protein therapeutics. […]
To prepare structurally altered ovalbumin (OVA) with amyloid cross-β structure conformation, purified OVA (Sigma, A-7641, lot 071k7094) was heated to 85° C. […] Native OVA (nOVA) and heat-denatured OVA (dOVA) were tested in the ThT fluorescence assay and in the Plg-activation assay. In the fluorescence assay and in the Plg-activation assay, 25 and 100 μg ml^−1 nOVA and dOVA were tested, respectively. […]

[2] = ThT fluorescence of CpG-ODN-protein mixtures; assay type: physicochemical; conditions: for increased ThT fluorescence: 1 mg ml^−1 protein exposed to 21.4 μg ml^−1 CPG-ODN (FIG. 4F); for increase in ThT fluorescence: 1 mg ml^−1 protein, 30 min. at room temperature (FIG. 4D, E)
Procedure: as §1
Enhancement of ThT fluorescence was measured similarly as described above. […]

Balb/c mice = assay: Immunization of Balb/c mice with ovalbumin and amyloid-like ovalbumin; assay type: in vivo; conditions: without adjuvant
Procedure: Eight to ten weeks old female Balb/c mice are immunized with OVA according to two immunization regimes (Central Animal Laboratories, Utrecht University, The Netherlands). Pre-immune serum was collected prior to the immunizations. In one regime two groups of five mice were subcutaneously injected five consecutive days per week, for three consecutive weeks. Doses comprised 10 μg native OVA or heat-denatured OVA for each injection. Alternatively, according to the second protocol, three groups of five mice were injected once intraperitoneally with doses comprising 5 μg nOVA, 5 μg OVA or 5 μg native OVA mixed 1:1 with complete Freund's adjuvant (CFA). Each week, blood was taken. After three weeks, a second dose was given. Incomplete Freund's adjuvant (IFA) was used instead of CFA. Blood was taken after one week after the start of the immunization. Antibody titers in sera were determined and sera were analyzed for the presence of cross-β structure conformation specific antibodies. For this purpose, nOVA was coated onto wells of 96-wells ELISA plates and incubated with dilution series of sera. Sera of the groups of five mice were pooled prior to the analyses. Plates were washed and subsequently incubated with peroxidase-conjugated rabbit anti-mouse immunoglobulins (RAMPO, P0260, DAKOCytomation, Glostrup, Denmark). Plates were subsequently developed with tetramethylbenzidine (TMB) substrate. […]

[3] = biological target: T2, human fibronectin finger 4,5 (Fn F4,5) fragment (Homo sapiens, UniProt P02751); assay: ELISA, binding of fibronectin F4,5 to coated (mis)folded proteins; conditions: coated protein, FIG. 7D-H
T2 construct: human fibronectin finger 4,5 (Fn F4,5) fragment; made in house; host or cells: HEK293E cells, transient transfection, protein purified from the medium
Procedure: The plates were blocked using Blocking reagent (Roche 1112589). A dilution series of the protein of interest was applied to the coated proteins and wells were subsequently washed using TBS-T (50 mM Tris pH 7.3, 150 mM NaCl and 0.1% Tween20). Bound protein is detected by the FLAG-tag using 1:3000 anti-FLAG-HRP (Sigma A-8592) in PBS-T, or by 1:1000 Ni-NTA-HRP (Qiagen 34530) in PBS-T. The HRP reaction Is performed using the TMB substrate (Biosource 4501103 or Tebu Bio 101TMB100-500), stopped using 10% H2SO4 and absorbance was measured at 450 nm.

[4] = tested on: anti-β2GPI auto-antibodies; assay: Interference with binding of anti-β2GPI autoantibodies to immobilized β2GPI; parameters: species or system human; conditions: antibodies from Anti-phospholipid syndrome patients
Procedure: When plasma derived β2GPI is coated onto hydrophilic ELISA plates, anti-β2GPI auto-antibodies isolated from plasma of antiphospholipid syndrome auto-immune patients can bind^14. To study the influence of co-incubations of the coated β2GPI with the antibodies together with plasma β2GPI or recombinant β2GPI, concentration series of β2GPI were added to the patient antibodies. Subsequently, binding of the antibodies to coated β2GPI was determined.

[5] = ThT fluorescence of β2GPI with or without CL vesicles or DXS500k; assay type: physicochemical
Procedure: ThT fluorescence of β2GPI was measured as follows. […] CL vesicles were prepared according to an established procedure. Briefly, CL was dried under a stream of nitrogen. The lipids were resuspended to a concentration of 10 mg ml^−1 in 25 mM Tris-HCl, pH 7.3, 150 mM NaCl by vigorous agitation, using a vortex. In the ThT fluorescence assay, fluorescence of β2GPI in buffer, of CL or DXS500k in buffer, of buffer and ThT alone, and of β2GPI-CL adducts and β2GPI-DXS500k adducts, with or without ThT, was recorded as described above (section ThT fluorescence). In addition, TEM images were recorded with CL, β2GPI from human plasma, with or without CL, and with recombinant β2GPI, as described^1.

[6] = 1 mg ml^−1 protein exposed to 600 μg ml^−1 LPS (FIG. 4C)

T1 sequence (P00750 36-562): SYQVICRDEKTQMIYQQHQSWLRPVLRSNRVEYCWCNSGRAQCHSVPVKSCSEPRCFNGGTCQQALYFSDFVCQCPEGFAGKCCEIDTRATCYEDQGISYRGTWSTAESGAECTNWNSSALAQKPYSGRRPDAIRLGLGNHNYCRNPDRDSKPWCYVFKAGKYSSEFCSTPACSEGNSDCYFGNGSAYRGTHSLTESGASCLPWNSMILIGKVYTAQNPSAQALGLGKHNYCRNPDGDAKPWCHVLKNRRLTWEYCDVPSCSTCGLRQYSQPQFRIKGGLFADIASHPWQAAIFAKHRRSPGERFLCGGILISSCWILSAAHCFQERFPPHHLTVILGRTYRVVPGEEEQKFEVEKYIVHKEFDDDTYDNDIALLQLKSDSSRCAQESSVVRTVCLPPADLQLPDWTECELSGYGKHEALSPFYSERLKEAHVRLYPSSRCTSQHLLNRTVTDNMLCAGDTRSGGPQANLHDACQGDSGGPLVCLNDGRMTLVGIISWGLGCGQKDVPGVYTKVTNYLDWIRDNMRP
T2 sequence (P02751 182-276 limits assumed): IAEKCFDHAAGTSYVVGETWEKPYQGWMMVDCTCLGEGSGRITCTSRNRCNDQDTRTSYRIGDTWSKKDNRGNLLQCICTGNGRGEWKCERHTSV

B1: endostatin: protein therapeutic endostatin (EntreMed, Inc.) (protein)
chain: HSHRDFQPVLHLVALNSPLSGGMRGIRGADFQCFQQARAVGLAGTFRAFLSSRLQDLYSIVRRADRAAVPIVNLKDELLFPSWEALFSGSEGPLKPGARIFSFDGKDVLRHPTWPQKSVWHGSDPNGRRLTESYCETWRTEAPSATGQASSLLGGRLLGQSAASCHHAYIVLCIENSFMTASK
- ThT fluorescence enhancement ([1]; 200 μg ml^−1 LPS (FIG. 4D, E)): approximately 8 times
- ThT fluorescence enhancement ([1]; 400 μg ml^−1 LPS (FIG. 4D, E)): ~20 times
- ThT fluorescence enhancement ([1]; 600 μg ml^−1 LPS (FIG. 4D, E)): ~26 times
- ThT fluorescence enhancement [1, 6]: approximately 10 times
- stimulation of tPA-mediated conversion of Plg to Pls (tPA): absence of tPA activating properties
- increased ThT fluorescence [2]: approximately 10 factor
- increase in ThT fluorescence ([2]; 10.4 μg ml^−1 CPG-ODN): ~39 times
- increase in ThT fluorescence ([2]; 21.7 μg ml^−1 CPG-ODN): ~56 times

B2: nOVA: native chicken ovalbumin (protein)
chain: GSIGAASMEFCFDVFKELKVHHANENIFYCPIAIMSALAMVYLGAKDSTRTQINKVVRFDKLPGFGDSIEAQCGTSVNVHSSLRDILNQITKPNDVYSFSLASRLYAEERYPILPEYLQCVKELYRGGLEPINFQTAADQARELINSWVESQTNGIIRNVLQPSSVDSQTAMVLVNAIVFKGLWEKAFKDEDTQAMPFRVTEQESKPVQMMYQIGLFRVASMASEKMKILELPFASGTMSMLVLLPDEVSGLEQLESIINFEKLTEWTSSNVMEERKIKVYLPRMKMEEKYNLTSVLMAMGITDVFSSSANLSGISSAESLKISQAVHAAHAEINEAGREVVGSAEAGVDAASVSEEFRADHPFLFCIKHIATNAVLFFGRCVSP
- anti-nOVA antibody titers in pooled sera (Balb/c mice): Titers were also obtained

- affinity of fibronectin F4,5 (detection anti-FLAG HRP) [3]: acted as its native control
B3: reduced and alkylated OVA: reduced and alkylated ovalbumin (protein)
chain: GSIGAASMEFCFDVFKELKVHHANENIFYCPIAIMSALAMVYLGAKDSTRTQINKVVRFDKLPGFGDSIEAQCGTSVNVHSSLRDILNQITKPNDVYSFSLASRLYAEERYPILPEYLQCVKELYRGGLEPINFQTAADQARELINSWVESQTNGIIRNVLQPSSVDSQTAMVLVNAIVFKGLWEKAFKDEDTQAMPFRVTEQESKPVQMMYQIGLFRVASMASEKMKILELPFASGTMSMLVLLPDEVSGLEQLESIINFEKLTEWTSSNVMEERKIKVYLPRMKMEEKYNLTSVLMAMGITDVFSSSANLSGISSAESLKISQAVHAAHAEINEAGREVVGSAEAGVDAASVSEEFRADHPFLFCIKHIATNAVLFFGRCVSP

- inhibition of binding of anti-β2GPI auto-antibodies to immobilized β2GPI [4]: efficiently inhibits binding
B4: recombinant β2GPI: recombinant human β2-glycoprotein I made using insect cells (protein)
chain: GRTCPKPDDLPFSTVVPLKTFYEPGEEITYSCKPGYVSRGGMRKFICPLTGLWPINTLKCTPRVCPFAGILENGAVRYTTFEYPNTISFSCNTGFYLNGADSAKCTEEGKWSPELPVCAPIICPPPSIPTFATLRVYKPSAGNNSLYRDTAVFECLPQHAMFGNDTITCTTHGNWTKLPECREVKCPFPSRPDNGFVNYPAKPTLYYKDKATFGCHDGYSLDGPEEIECTKLGNWSAMPSCKASCKVPVKKATVVYQGERVKIQEKFKNGMLHGDKVSFFCKNKEKKCSYTEDAQCIDGTIEVPKCFKEHSSLAFWKTDASDVKPC
- ThT fluorescence enhancement [1, 6]: ~4 times
- stimulation of tPA-mediated conversion of Plg to Pls (tPA): stimulate tPA-mediated conversion of Plg to Pls
- increased ThT fluorescence [2]: approximately 5 factor
- ThT fluorescence after exposure to CL vesicles or DXS ([5]; 25 μg ml^−1 β2GPI, 100 μM CL vesicles or 250 μg ml^−1 DXS): increased fluorescence of ThT
- ThT fluorescence signal of β2GPI preparation ([5]; without CL or DXS500k): higher ThT fluorescence signal
